# In patent publication US8962271B2, “Fructosyl peptidyl oxidase” (Roche Diagnostics Operations, Inc., priority 2009, dated 2015):
# Like-named read-outs stand apart in the source and are kept apart here.
# B1: PnFPOX: fructosyl peptidyl oxidase derived from Phaeosphaeria nodorum, amino acid sequence SEQ ID NO:1, recombinant from E. coli (protein, listed as Phaeosphaeria nodorum)
# chain: MAPSRANTSVIVVGGGGTIGSSTALHLVRSGYTPSNVTVLDAYPIPSSQSAGNDLNKIMGVSLRNPVDLQLALEARQMWNEDELFKKFFHNTGRLDCAHGEKDIADLKSGYQALVDAGLDATNEWLDSEDEILKRMPLLSRDQIKGWKAIFSKDGGWLAAAKAINAVGEYLRDQGVRFGFYGAGSFKAPLLAEGVCIGVETVDGTRYYADKVVLAAGAWSPTLVELHEQCVSKAWVYGHIQLTPEEAARYKNSPVVYNGDVGFFFEPNEHGVIKVCDEFPGFTRFKMHQPFGAKAPKRISVPRSHAKHPTDTIPDASDVSIRRAIATFMPQFKNKKMFNQAMCWCTDTADAALLICEHPEWKNFVLATGDSGHSFKLLPNIGKHVVELLEGTLADDLAHAWRWRPGSGDALKSRRSAPAKDLADMPGWNHDKPRANL
# Assays:
# [1] = test system: CC(C)[C@H](NCC(=O)[C@@H](O)[C@H](O)[C@H](O)CO)C(=O)N[C@@H](Cc1cnc[nH]1)C(=O)O; test: purified protein, by the assay type; conditions: other: substrate FVH; apparent Km; 4A.A/TODB/POD
# Protocol: (§4) Escherichia coli BL21 (DE3) transformed with pEPN (pET28a-PnFPOX) was grown aerobically at 37° C. in LB medium (7 L) containing 50 μg kanamycin ml^−1. After reaching an A660 nm value of 1.4, the cells were induced with 0.3 mM IPTG, and the incubation was continued at 25° C. until reaching an A660 nm value of 3.0. The cells were harvested by centrifugation and a quarter of harvested cells (approx. 10.5 g) were resuspended in 10 mM PPB, pH 7.0, and lysed by 2 passages through a French press (1,000 kg cm^−2). The lysate was centrifuged at 10,000 g at 4° C. for 20 min, and the supernatant was centrifuged at 40,000 rpm at 4° C. for 90 min. The supernatant was then dialyzed against 10 mM PPB, pH 8.0, containing 25 μM FAD.
# (§5) Ammonium sulfate was added to the dialyzed supernatant to 35% saturation and then the precipitate formed was pelleted by centrifugation at 15,000 g for 20 min. The resultant precipitate was dissolved in 10 mM PPB, pH 8.0, containing 25 μM FAD and 1% mannose and dialyzed at 4° C. against the same buffer, and subsequently dialyzed against 10 mM PPB, pH 8.0, containing 25 μM FAD. The dialyzed enzyme solution was applied to a RESOURCE Q column (GE Healthcare) equilibrated with 10 mM PPB, pH 8.0. […] The active flow-through fractions were collected and dialyzed against 10 mM PPB, pH 7.0.
# (§6) The dialyzed enzyme solution was applied to a HiLoad 16/60 Superdex 75 pg column (GE Healthcare) equilibrated with 10 mM PPB, pH 7.0. Gel filtration chromatography was carried out with the same buffer. The active fractions were collected, and the purified enzyme solution was dialyzed against 10 mM PPB, pH 7.0 containing 100 μM FAD, and stored at 4° C. The purity of the purified enzyme was confirmed by SDS-PAGE, and the protein concentration was measured using a DC Protein Assay Kit (Bio-Rad, CA, USA).
# [2] = test system: CC(C)[C@H](NCC(=O)[C@@H](O)[C@H](O)[C@H](O)CO)C(=O)O; test: purified protein, by the assay type; conditions: other: substrate FV; apparent Km; 4A.A/TODB/POD
# Protocol: as §4, §5, §6
# [3] = test system: fructosyl peptidyl oxidase FPOX-C (Coniochaeta sp. NISL 9330; GenBank: BAD00186.1); conditions: cited from earlier work
# [4] = test system: fructosyl peptidyl oxidase FPOX-E (Eupenicillum terrenum ATCC 18547; GenBank: BAD00185.1); conditions: cited from earlier work
# [5] = Oxidase activity, 4AA/TODB/POD system, substrate FV; format: biochemical
# Protocol: (§1) The water-soluble fraction was examined for the oxidase activity using a POD/TODB/4A.A. method with three substrates: fructosyl valine (FV), fructosyl lysine (FK), and fructosyl valyl histidine (FVH).
# (§2) The oxidase activity was assayed using 4A.A/TODB/POD with varying concentrations of substrates, FV, FK and FVH. The absorbance at 546 nm was monitored. Typical Michaelis-Menten curves were obtained with FV and FVH, but not with FK. […] A high VmaxKm^−1 value for FV (42.8 U mg^−1 mM^−1) indicates high specificity toward FV of this enzyme. It should be noted that VmaxKm^−1 value for FVH is also considerable (14.7 U mg^−1 mM^−1, 34% of VmaxKm^−1 for FV). This activity toward FVH of PnFPOX will be beneficial in the enzyme-based measurement of HbA1c. For comparison, the oxidase activity of known fructosyl peptidyl oxidases (FPOX-C and FPOX-E) was also included in the table (Hirokawa et al. ibid).
# (§3) The oxidase activity of the fructosyl peptidyl oxidases PnFPOX and FPOX-C on a fructosyl hexapeptide (F6P: Fru-Val-His-Leu-Thr-Pro-Glu) was assayed without addition of Proteinase N. The enzyme activity was measured in a 4AA/TODB/POD system as described in Example 2, with the substrate concentration of 1 mM for FV and FVH and 5 mM for F6P.
# [6] = Oxidase activity, 4AA/TODB/POD system, substrate FK; format: biochemical; conditions: water-soluble fraction; POD/TODB/4A.A. method; in words
# Protocol: as §1, §2
# [7] = Oxidase activity, 4AA/TODB/POD system, substrate FVH; format: biochemical
# Protocol: as §1, §2, §3
# [8] = Oxidase activity toward fructosyl hexapeptide without Proteinase N, 4AA/TODB/POD system; format: biochemical
# Protocol: as §3
# [9] = Thermostability: residual activity after heat treatment; format: physicochemical; conditions: heat-treated at 50° C. for 10 minutes in 10 mM PPB (pH 7.0)
# Protocol: Thermostability of PnFPOX was evaluated by incubating the purified enzyme solution in 10 mM PPB (pH 7.0) at various temperatures for 10 minutes and then measuring the residual activity. The activity of PnFPOX was maintained about 75% up to 50° C. […] (Hirokawa et al. ibid).
# [10] = substrate concentration 1 mM, 4AA/TODB/POD
# [11] = water-soluble fraction, POD/TODB/4A.A. method, in words
molecule,measurement,setting,value
"fructosyl peptidyl oxidase PnFPOX from Phaeosphaeria nodorum, SEQ ID NO:1 (recombinant, purified) (Parastagonospora nodorum SN15)",Km,[1],200 µM
same,Vmax,[1],2.97 U/mg
same,Km,[2],640 µM
same,Vmax,[2],27.6 U/mg
"N[C@@H](CCCCNCC(=O)[C@@H](O)[C@H](O)[C@H](O)CO)C(=O)O [FK, fructosyl lysine]",Km,[3]; substrate FK,10600 µM
same,Vmax,[3]; substrate FK,23.4 U/mg
same,Vmax,[4]; substrate FK,0.42 U/mg
"CC(C)[C@H](NCC(=O)[C@@H](O)[C@H](O)[C@H](O)CO)C(=O)N[C@@H](Cc1cnc[nH]1)C(=O)O [FVH, fructosyl valyl histidine]",Km,[3]; substrate FVH,2810 µM
same,Vmax,[3]; substrate FVH,23.8 U/mg
same,Km,[4]; substrate FVH,2760 µM
same,Vmax,[4]; substrate FVH,5.43 U/mg
"CC(C)[C@H](NCC(=O)[C@@H](O)[C@H](O)[C@H](O)CO)C(=O)O [FV, fructosyl valine]",Km,[3]; substrate FV,824 µM
same,Vmax,[3]; substrate FV,66.0 U/mg
same,Km,[4]; substrate FV,318 µM
same,Vmax,[4]; substrate FV,20.6 U/mg
B1,FV (U/mg) oxidase activity,[5]; [10],1.3 U/mg
same,oxidizing activity to FV,[5]; [11],showed oxidizing activity
same,oxidizing activity to FK,[6],showed oxidizing activity
same,VmaxKm^−1 for FVH as % of VmaxKm^−1 for FV,[7],34%
same,FVH (U/mg) oxidase activity,[7]; [10],0.11 U/mg
same,oxidizing activity to FVH,[7]; [11],showed oxidizing activity
same,capability of oxidizing fructosyl hexapeptide,[8]; in words,capable of oxidizing fructosyl hexapeptide
same,F6P (U/mg) oxidase activity,"[8]; substrate concentration 5 mM, without Proteinase N",1.3 × 10^−3 U/mg
same,residual activity,[9],about 75%
